Results published in the nanobody polyreactivity screen of Harvey et al. (2022).

Test: yeast display, Sf9 membrane polyspecificity reagent, FACS + sequencing; frameworks hold sequencing errors
Procedure, shortened: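 Galactose-induced (36–48 hours) yeast carrying a synthetic nanobody display library were exposed to 10% biotinylated, detergent-solubilized Sf9 membrane reagent at 4 °C for 1 hour. FACS followed streptavidin microbead enrichment, using low and high (top ~1%) gates for expression (anti-HA) and reagent binding (streptavidin). Colony PCR, MiSeq 2 × 250 sequencing and CDR-length filtering followed. Labels for polyreactivity reflect the gate of origin.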

Row | Sequence | polyreactivity (PSR sort gate)
1 | QVQLVESGGGLVQARGSLRLSCAASGSIFIRNAMGWYRQAPGKERELVAAISTIGGRTYYADSVKGRFTISRDNAKNTVYLQMNSLKPEDTAVYYCAAEQGTPSTNWYDYWGQGTQVTVSS | low polyreactivity
2 | QVQLVESGGGLVQAGGSLRLSCAASGFTFKYNAMGWYRQAPGKERELVASISSGSTNYADSVKGRFTISRDNAKNTVYLQMNSLKPEDTAVYYCAASVSRGKRFRYGYVFKLDYWGQGTQVTVSS | low polyreactivity
3 | QVQLVESGGGLVQAGGSLRLSCAASGGIFYSYAMGWYRQAPGKERELVAALSRGSRTYYADSVKGRFTISRDNAKNTVYLQMNSLKPEDTAVYYCAAYIVGSYRDGYWGQGTQVSVSS | high polyreactivity
4 | QVQLVESGGGLVQAGGSHRLSCAASGSILDTYAMGWYRQAPGKERELVAAISRGGRTYYADSVKGRFTLSRDNAKNTVYLQMNSLKPEDTAVYYCNTLTRLVYDGMGYWGQGTQVTVSS | high polyreactivity
5 | QVQIVESGGGLVQAGGSLRLSCAASGSIFKIYEMGWYRLAPGKEREMVASMTCSGGSTYYADSVKGRFTISRDNAKNTVYLQRNSLKPEDTAGYYCAAAVLGSSKSEVDPDRPEYYYWGQGTQVTVSS | low polyreactivity
6 | QVQLVESGGGLVQAGGSLRLSCAASGRIFGHYAMGWYRQAPGKERELVAAISQSGTNTYYADSVKGRFTISRDNAKNTVYLQMNSLKPEDTAVYYCAAKPPRRYQLMDYWGQGTQVTVSS | high polyreactivity
7 | QVQLVESGGGLVQAGGSLRLSCAASGFIFGYYAMGWYRQAPGKERELVAAMSRGGITYYADSVNGRFTISRDNAKNTVYLQMNSLKPEDTAVYYCAAPNRYSVPMYYWGQGTQVTVSS | low polyreactivity
8 | QVQLEESGGGLVQAGGSIRLSCAASGFIFYYNAMGWYRQAPGKERELVASIRSGGSTNYADSVKGRFTISRDNAKNTVYLQMNSLKPEDTAVYYCAADISRWSHRSKEMYYWGQGTQVTVSS | low polyreactivity
9 | QVQLVESGGGLVQAGGSLRLSCAASGITFSSYAMGWYRQAPGKERELVAGITRRGGITYYADSVKGRFTISRDNAKNTVYLQMNSLKPEDTAVYYCAATHRFRTGSPDGGYGYWGQGTQVTVSS | high polyreactivity
10 | QVQLVESAAGLVQAGGSLRVSCAASGSSFRLYAMGWYRPAPGKEREFVARIRWRGGSTNYADSVKGRFTISRDNAKNNVYLQMNSLKTEDTAVYYCAAKQGTVRAHTYVPWYDYWGQGTQVTVSS | high polyreactivity
11 | QVQLVESGGGLVQAGGSLRLSCAASGSTFNRNAMGWYRQAPGKERDLVAAISWRGDTTSYADSVKGRSTISRDNAKNTFYLQMNSLNPEDTAVYYCATAHDYAFYRYWYVPSEYNYWGQGTQVTVSS | low polyreactivity
12 | QVQLVESGGGIVQAGGSLRLSCAASGSTLEPNAMGWYRQAPGKERELVAAITIGGSTYYADSVKGRFTISRDNAKYTVYLQMNSLKPEDTAVYYCAAKSTVQRRRHTNYDYWGQGTQVTVSS | high polyreactivity
13 | QVQLVESGGGLVQAGGSLRLSCAAYGFTIYYYTMGWYRQAPGKERELFAAISHSGSSTYYADSVKGRFTISRDNAKKTVNLQMNSLKPEDTAVYYCAASRSKNSALGGRVSIGDYWGQGTQVTVSS | high polyreactivity
14 | QVHLVESGGGLVQAGGSLRLRCAASGLTSTNNAMGWYRQAPGKERELVAAITSGSTTNYADSVKGRFTISRDNAKNTVYLQMNSLNPEDTAVYYCAAQYGVWWRGYYYPEYDYWGEGTQVTVSS | low polyreactivity
15 | QVHLVESGGGLVQAGGSLRLSSAASGRIFKYYTMGWYRHAPGKERELVASITGTGGSTYYADSVKGRFTISRDNAKNTVYLQMNRLKPEDTAVYYCAARLSVLGGYRGRNAWRFDHWGQGTKVTVSS | high polyreactivity
16 | QVQLVESGGGLVQAGGSLRLSCAASGRTFYPNVMGWYRQAPGKERELVAAITSGGSTYYADSVKGRFTISRDNAKNTVYLQMNSLKPEDTAVYYCAVAYAGGGSRKYDYWGQGTQVTVSS | low polyreactivity
17 | QVQLVESGGGLVQPGGSLLLSCAASRITFDHYAMAWYRRAPGKERELVAAITSGGNTNYADSVKGRFTISRDNAKNPVYLQMNSLKPEDTAVYYCNAGYDVCYYYWGKGTQVTVSS | low polyreactivity
18 | QVQLVESGGGLVQAGGSLRLSCAASGFIFDGYAMGWYSQAPGKERELVAAIDSGGDRTYYADSVKGRFTISRDNAKNTVYLQMNSLKPEDTAVYYCAADSSDPTGYDYWGQGTQVTVSS | low polyreactivity
19 | QVQLVESGGGLVQAGGSLRLSCAASGSIFTFNAMGWYRQAPGKERELDAGISWRTSSTSYADSVKGRFTNSRDNAKNTVYLQMNSLKPEDTAVYYCATEDSWGYEEVDYWGQGTQVTVSS | low polyreactivity
20 | QVQLVESGGGLVQAGGSLRLSCAASGSIFAVYAMGWYRQAPGKERELVATITGIDTGTYYADSVKGRFTISRDNAKNTVYLQMNSLKPEDTAVYYCAAVWRYRHLRFYYWGQGTQVTVSS | high polyreactivity
21 | QVQLLESVGGLVQAGGSLRLSSMASGSILGDRMSWYRHAPGKEHELVATIYDGGITYYADSMKGRFTISRDNAKNTVYLQMNSLRPEDSAVYYCGASFEGYRYHVYCGQGTQVTVSS | low polyreactivity
22 | QVQLVESGGGLVQAGGSLRLSCAASGSTFLVYAMGWYRQAPGKEMEFVAAISWSGGSTFYADSVKGRFTISRDNAKNTVYLQMNSLKPVDTAVYYCAARQAGYSGRKLYYWGQGTQVTVSS | low polyreactivity

Row | Sequence | polyreactivity (PSR sort gate)
23 | QVQLVESGGGLVQAGGSLRLSCAASGSTFTLYAMGWYRQAPGQERELVAAIRRGGSTNYADSVKGRFTISRDNAKNPVYLQMNSLKPEDTAVYYSAADTYTSRSRYSGSGGYDYWGQGTQVTVSS | low polyreactivity
24 | QVHRGETGGGLVQAGGSLRLSCSASGLSFPHYAMGWYRQAPGKERDLVADINLSGGSNTYYADSVKGRFTISRDNAKNTVYLMMNSLKPEDTPVYDCNAVSWENWYHIMDYWGQGTQVTVSS | high polyreactivity
25 | QVQLVESGGGLVQAGGSLLLSCAASGITFIRNGMGWYRPAPGKERELVAAISDTGARTYYADSVKGRFTISRDNAKNTVYLQMNSLKPEDTAVYYCAADFQTYWSHLYGYIGQYDYWGQGTQVTVSS | low polyreactivity
26 | QVQLVESGGGLVQAGGSLRLSCAASGRIFFSYAMGWYRQAPGKERELVAAITSGGSTNYADSVKGRFTISRDNAKNTVYLQMNSLKPEDTAVYYCNKARSSGYNFGYWGQGTQVTVSS | low polyreactivity
27 | QVQLVESGGGLVQAGGSLRLSCAASGNIFYANDMGWYIQAPGKERELVAAITGSGGSTYYADSVKGRFTISRDNAKNTVYLQMDSLKPEDTAVYYCATPYDIQWASESHDSWGQGTQVTVSS | low polyreactivity
28 | HVQLVESGGGLVQAGGSLRLSCAASGSIFGLYAMGWSRQAPGKEWELVAAITRGDSTNYADSVKGRFTISRDNAKNTVYLQMNSLKPEDTAVYYCNAVYAGWRGGNYWGQGTQVTVSS | low polyreactivity
29 | QVQLVESGGGLVQAGGSLRLSCAASGRTFYYYAMGWYRQAPGKEREFVASISYSGARTYYADSVKGRFTISRDNAKNTVYLQVNSLKPEDTAVYYCDAGYPLGGDYWGQGTQVTVSS | high polyreactivity
30 | QVQLVESGGGLVQAGGSLRLSCAASGSTFWTNAMGWYRQAPGKERELVAAISRSGGSTYYADSVKGRFTISRDNAKNTVYLQMNSLKPEDTAVYYCNAVLPYYRGSHYDYWGQGTQVTVSS | high polyreactivity
31 | QVQLVESGGGLVQAGGSLRLSCAASGSIFFSYAMGWYRPAPGKERELVAGINWSGGSTYADSVKGRFTLSRDNAKNTVYLQINSLKPEDTAVYYCAAKYYSERSRYHYWGQGTQVTVSS | low polyreactivity
32 | QVQLVESGGGLVQAGGSLRLSCPASGSIFPHYAMGWYRQAPGKERELVAAISRSGTSTYYADSVKGRFTISRDNAKNTVYLQMNSLKPEDTAVYYCNAYQVYTRTYGYWGQGTQVTVSS | high polyreactivity
33 | QVQLVESGGGLVQAGGSLRLSCAASGGTIAPYAMVWYRQAPGKERELVATISYSGTSTNYADSVKGRFTITRDNAKNTVYLQMNSLKPEDTAVYYCYAVLYARQRDRWARYDYWGQGTQVTVSS | high polyreactivity
34 | QVQLVESGGGLVQAGGRIRLSCAASGSTYGLNAMGWYRQDPGNEREMVAAITFISGSTNYADSVKGRFSISRDNAKNTVYLQMNSLKPEDTAVYYCAGDSVYYAGYDDDYWGLGTQVTVSS | low polyreactivity
35 | QVQLVESGGGLVQAGGSLRLSCAASGLTFYFYAMGWYRQAPGKERELVAAISYSGGSTYYADSVKGRFTISRDKAENTVYLQMNSLKPEDTAVYYCAARPTDGSGWPYRWTSDYWGHGTQVTVSS | low polyreactivity
36 | QVQLVESGGGLVQAGRSLRLSCAASGRIFVPYVMGWYRQAPGKERELVASISDSDTSTYYADSVKGRFTISRDNAKNTVYVQMNSLKPEDTAVYYCNVDYWGQGTQVTVSS | low polyreactivity
37 | QVQLVESGGGLVQAGGSLRLSCAASGFTFWWYAMGWYRQAPGKERELVASIDTRGGTYYADSVKGRFTISRDNAKNTVYLQMNSLKPEDSAVYYCNADGAYGNYRGGYWGQGTEVTVSS | high polyreactivity
38 | QVQLVESGGGLVQAGGSLRLSCAASGFIFLLYDMGWYRQAPGKERELVAAITSDGTTNYADSVKGRFTISRDNAKNTVYLQMNSLKPEDTAVYYCAADGFTRWGRYDYWGQGTQVTVSS | high polyreactivity
39 | QVLLVESGGGLVQAGGSLRLSCAASGFTFGTNAMVWYRQAPGKERELVAAISSRGGSTYYADSVKGRFTISRDNAKNTVYLLMNSLNPEDTAVYYCARRVARRQHEYGYWGQGTQVTVSS | high polyreactivity
40 | QVQLVESGGGLVQAGGSLRLSCAASGSTFYKYAMGWYRQAAGKERELVASISRSGGSTSYADSVKGRFTISRDNGKNTVYLQMYCLKPEDTAVYYCAATWRQHPGSMGYWGQGTQVTVSS | high polyreactivity
41 | QVQLVASGGGLVQAGGSLRLSCAASGGTLDYYVMGWYRQAPGKERELVAAISTNGGSTNYADSVKGRFTISRDNAKNTVYLQMNSLKPEDTAVYYCAATSDVYVFLEFDYWGQGTQVTVSS | low polyreactivity
42 | QVQLVESGGGLVQAGGSLRLSCAASGSTLYGYAMGWYRQAPGKERELVAAISSSGTRTYYADSVKGRFTISRDNAKNSVYLQMNSLKPEDTAVYYCNAYYYIPFEGRGYSKMDYWGQGTQVTVSS | high polyreactivity
43 | QVQLVESGGGLVQAGGSLRLSCAASGFTFTSNAMGWYRQAPGKERELVAAITSSGGITYYADSVKGRFTISRDNAKNTVYLQMNSLKPEDTAVYYCAASISSYNSPGYGYWGQGTQVTVSS | low polyreactivity
